Drawing on US20240024414, this text covers binding signal (log2 fold change) for five substances.

The series has as its target L7Ae (50S ribosomal protein L7Ae, L30 family, RBP11) (Archaeoglobus fulgidus) (UniProt O29494). Briefly: pulldown. The following applies: RIP-Seq enrichment, may be indirect.

Sequence of L7Ae (50S ribosomal protein L7Ae, L30 family, RBP11) (Archaeoglobus fulgidus) (O29494 whole entry): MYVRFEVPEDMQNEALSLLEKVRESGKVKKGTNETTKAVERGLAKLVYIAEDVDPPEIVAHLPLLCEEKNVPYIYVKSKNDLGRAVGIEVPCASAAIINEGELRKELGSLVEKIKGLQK

The substance FAM69A RNA showed a binding signal (log2 fold change) of 4.98.

NPM1 RNA returned a binding signal (log2 fold change) of 3.22.

SNORA62 RNA registered a binding signal (log2 fold change) of 3.32.

In the case of SNORA73B RNA, the binding signal (log2 fold change) is 4.08.

As to SNORA79B RNA, the binding signal (log2 fold change) amounted to 3.28.
